Experimental data as given in PMC11873960, “Coupled Heterogeneity to Dimeric Site-Specific Binding by the POU-Family Transcription Factor OCT2” (The Journal of Physical Chemistry. B, 2025).

T1: OCT2 DBD (POU domain) (Homo sapiens, UniProt P09086 195-357)
T1 sequence: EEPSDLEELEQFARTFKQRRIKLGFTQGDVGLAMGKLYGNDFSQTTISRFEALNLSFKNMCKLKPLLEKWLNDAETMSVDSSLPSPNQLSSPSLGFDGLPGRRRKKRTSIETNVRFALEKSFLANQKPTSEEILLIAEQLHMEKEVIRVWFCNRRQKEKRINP

B1: MORE 22-bp, HEX-labelled (dsDNA)
DNA 1: TCCTCATGCATATGCATGAGGA
DNA 2: TCCTCATGCATATGCATGAGGA
B2: OCT2 DBD (DNA-binding domain, POU domain, of human POU factor OCT2) (domain or fragment, UniProt P09086 195-357, looked up)
chain: T1 sequence
notes: Cloned into NdeI/BamHI of pET15b; residues of the vector may be left at the N-terminus after thrombin cleavage (surmised); the linker is not resolved in the structure; also called POU2F2; OCT DBD; source: E. coli BL21(DE3)pLysS, purified (Ni-NTA, thrombin cleavage, Sepharose SP, Superdex 75); not shown: His6, N-terminal, cleaved

Columns and labels:
OCT2 DBD (POU domain) [1] = target: T1, OCT2 DBD (POU domain); test: fluorescence anisotropy; 0.25 M Na+, no poly[d(I-C)]; FP: 5 nM probe, 10 mM Bis-Tris pH 6.5, 0.01% BSA, 0.15-0.35 M NaCl, 25 C overnight, Hill fit with nH = 2 (macroscopic KD of dimer); EMSA: 10 nM DNA, PBS, 25 C o; settings: protein: recombinant; tags: N-terminal His6 removed by thrombin; chain copies: 2; label: 5'-HEX; blunt; self-complementary, 2 copies of the strand
OCT2 DBD (POU domain) [2] = target: T1, OCT2 DBD (POU domain); test: fluorescence anisotropy; 0.15 M Na+, no poly[d(I-C)]; text gives 3.2 +/- 1.4 nM; FP: 5 nM probe, 10 mM Bis-Tris pH 6.5, 0.01% BSA, 0.15-0.35 M NaCl, 25 C overnight, Hill fit with nH = 2 (macroscopic KD of dimer); EMSA: 10 nM DNA, PBS, 25 C o; settings: protein: recombinant; tags: N-terminal His6 removed by thrombin; chain copies: 2; label: 5'-HEX; blunt; self-complementary, 2 copies of the strand
OCT2 DBD (POU domain) [3] = target: T1, OCT2 DBD (POU domain); test: fluorescence anisotropy; 0.15 M Na+, 1 U poly[d(I-C)]; FP: 5 nM probe, 10 mM Bis-Tris pH 6.5, 0.01% BSA, 0.15-0.35 M NaCl, 25 C overnight, Hill fit with nH = 2 (macroscopic KD of dimer); EMSA: 10 nM DNA, PBS, 25 C o; settings: protein: recombinant; tags: N-terminal His6 removed by thrombin; chain copies: 2; label: 5'-HEX; blunt; self-complementary, 2 copies of the strand
OCT2 DBD (POU domain) [4] = target: T1, OCT2 DBD (POU domain); test: fluorescence anisotropy; 0.175 M Na+, no poly[d(I-C)]; FP: 5 nM probe, 10 mM Bis-Tris pH 6.5, 0.01% BSA, 0.15-0.35 M NaCl, 25 C overnight, Hill fit with nH = 2 (macroscopic KD of dimer); EMSA: 10 nM DNA, PBS, 25 C o; settings: protein: recombinant; tags: N-terminal His6 removed by thrombin; chain copies: 2; label: 5'-HEX; blunt; self-complementary, 2 copies of the strand
OCT2 DBD (POU domain) [5] = target: T1, OCT2 DBD (POU domain); test: fluorescence anisotropy; 0.35 M Na+, 1 U poly[d(I-C)]; text gives 0.18 +/- 0.06 uM; FP: 5 nM probe, 10 mM Bis-Tris pH 6.5, 0.01% BSA, 0.15-0.35 M NaCl, 25 C overnight, Hill fit with nH = 2 (macroscopic KD of dimer); EMSA: 10 nM DNA, PBS, 25 C o; settings: protein: recombinant; tags: N-terminal His6 removed by thrombin; chain copies: 2; label: 5'-HEX; blunt; self-complementary, 2 copies of the strand
OCT2 DBD (POU domain) [6] = target: T1, OCT2 DBD (POU domain); test: fluorescence anisotropy; 0.25 M Na+, 1 U poly[d(I-C)]; FP: 5 nM probe, 10 mM Bis-Tris pH 6.5, 0.01% BSA, 0.15-0.35 M NaCl, 25 C overnight, Hill fit with nH = 2 (macroscopic KD of dimer); EMSA: 10 nM DNA, PBS, 25 C o; settings: protein: recombinant; tags: N-terminal His6 removed by thrombin; chain copies: 2; label: 5'-HEX; blunt; self-complementary, 2 copies of the strand
OCT2 DBD (POU domain) [7] = target: T1, OCT2 DBD (POU domain); test: fluorescence anisotropy; 0.30 M Na+, 1 U poly[d(I-C)]; FP: 5 nM probe, 10 mM Bis-Tris pH 6.5, 0.01% BSA, 0.15-0.35 M NaCl, 25 C overnight, Hill fit with nH = 2 (macroscopic KD of dimer); EMSA: 10 nM DNA, PBS, 25 C o; settings: protein: recombinant; tags: N-terminal His6 removed by thrombin; chain copies: 2; label: 5'-HEX; blunt; self-complementary, 2 copies of the strand
OCT2 DBD (POU domain) [8] = target: T1, OCT2 DBD (POU domain); test: fluorescence anisotropy; 0.20 M Na+, 1 U poly[d(I-C)]; FP: 5 nM probe, 10 mM Bis-Tris pH 6.5, 0.01% BSA, 0.15-0.35 M NaCl, 25 C overnight, Hill fit with nH = 2 (macroscopic KD of dimer); EMSA: 10 nM DNA, PBS, 25 C o; settings: protein: recombinant; tags: N-terminal His6 removed by thrombin; chain copies: 2; label: 5'-HEX; blunt; self-complementary, 2 copies of the strand
OCT2 DBD (POU domain) [9] = target: T1, OCT2 DBD (POU domain); test: fluorescence anisotropy; 0.30 M Na+, no poly[d(I-C)]; FP: 5 nM probe, 10 mM Bis-Tris pH 6.5, 0.01% BSA, 0.15-0.35 M NaCl, 25 C overnight, Hill fit with nH = 2 (macroscopic KD of dimer); EMSA: 10 nM DNA, PBS, 25 C o; settings: protein: recombinant; tags: N-terminal His6 removed by thrombin; chain copies: 2; label: 5'-HEX; blunt; self-complementary, 2 copies of the strand
OCT2 DBD (POU domain) [10] = target: T1, OCT2 DBD (POU domain); test: fluorescence anisotropy; 0.175 M Na+, 1 U poly[d(I-C)]; FP: 5 nM probe, 10 mM Bis-Tris pH 6.5, 0.01% BSA, 0.15-0.35 M NaCl, 25 C overnight, Hill fit with nH = 2 (macroscopic KD of dimer); EMSA: 10 nM DNA, PBS, 25 C o; settings: protein: recombinant; tags: N-terminal His6 removed by thrombin; chain copies: 2; label: 5'-HEX; blunt; self-complementary, 2 copies of the strand
OCT2 DBD (POU domain) [11] = target: T1, OCT2 DBD (POU domain); test: fluorescence anisotropy; 0.35 M Na+, no poly[d(I-C)]; FP: 5 nM probe, 10 mM Bis-Tris pH 6.5, 0.01% BSA, 0.15-0.35 M NaCl, 25 C overnight, Hill fit with nH = 2 (macroscopic KD of dimer); EMSA: 10 nM DNA, PBS, 25 C o; settings: protein: recombinant; tags: N-terminal His6 removed by thrombin; chain copies: 2; label: 5'-HEX; blunt; self-complementary, 2 copies of the strand
OCT2 DBD (POU domain) [12] = target: T1, OCT2 DBD (POU domain); test: fluorescence anisotropy; 0.20 M Na+, no poly[d(I-C)]; FP: 5 nM probe, 10 mM Bis-Tris pH 6.5, 0.01% BSA, 0.15-0.35 M NaCl, 25 C overnight, Hill fit with nH = 2 (macroscopic KD of dimer); EMSA: 10 nM DNA, PBS, 25 C o; settings: protein: recombinant; tags: N-terminal His6 removed by thrombin; chain copies: 2; label: 5'-HEX; blunt; self-complementary, 2 copies of the strand
[13] = target: the molecule itself; test: native gel or EMSA; 0.2 kbp DNA fragment with a single MORE site (10 nM) incubated overnight at 25 °C with graded OCT2 DBD (2-fold dilutions from 1 uM) in PBS; 4-20% gradient polyacrylamide gel; dimer assembled on DNA

Binder | Kd (OCT2 DBD (POU domain) [1]) | Kd (OCT2 DBD (POU domain) [2]) | Kd (OCT2 DBD (POU domain) [3]) | Kd (OCT2 DBD (POU domain) [4]) | Kd (OCT2 DBD (POU domain) [5]) | Kd (OCT2 DBD (POU domain) [6]) | Kd (OCT2 DBD (POU domain) [7]) | Kd (OCT2 DBD (POU domain) [8]) | Kd (OCT2 DBD (POU domain) [9]) | Kd (OCT2 DBD (POU domain) [10]) | Kd (OCT2 DBD (POU domain) [11]) | Kd (OCT2 DBD (POU domain) [12]) | stoichiometry N [13]
B1 | 0.088 ± 0.018 µM | 0.0038 ± 0.0014 µM | 0.0055 ± 0.0013 µM | 0.0097 ± 0.0037 µM | 0.19 ± 0.06 µM | 0.041 ± 0.013 µM | 0.071 ± 0.019 µM | 0.016 ± 0.007 µM | 0.56 ± 0.1 µM | 0.011 ± 0.004 µM | 1.2 ± 0.3 µM | 0.029 ± 0.009 µM | –
B2 | – | – | – | – | – | – | – | – | – | – | – | – | 2
